The record followed here is patent US20070066551.

Data set [1] has as its system IgE (Homo sapiens), P01854-1. Description: filter. The settings on record: DPBS with Ca/Mg, BSA.
The target of data set [2] is IL-23 (full length) (Homo sapiens) (UniProt Q9NPF7+P29460). Description: filter. The settings on record: dRmY, DPBS with Ca/Mg, BSA, RT.
IL-23 (full length) (Homo sapiens), sequence (Q9NPF7 20-189, chain 1 of 2): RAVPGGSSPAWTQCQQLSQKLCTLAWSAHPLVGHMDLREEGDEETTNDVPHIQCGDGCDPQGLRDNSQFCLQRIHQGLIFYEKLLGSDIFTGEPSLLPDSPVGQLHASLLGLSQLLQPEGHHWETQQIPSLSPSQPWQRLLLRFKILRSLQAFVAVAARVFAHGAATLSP
IL-23 (full length) (Homo sapiens), sequence (P29460 23-328, chain 2 of 2): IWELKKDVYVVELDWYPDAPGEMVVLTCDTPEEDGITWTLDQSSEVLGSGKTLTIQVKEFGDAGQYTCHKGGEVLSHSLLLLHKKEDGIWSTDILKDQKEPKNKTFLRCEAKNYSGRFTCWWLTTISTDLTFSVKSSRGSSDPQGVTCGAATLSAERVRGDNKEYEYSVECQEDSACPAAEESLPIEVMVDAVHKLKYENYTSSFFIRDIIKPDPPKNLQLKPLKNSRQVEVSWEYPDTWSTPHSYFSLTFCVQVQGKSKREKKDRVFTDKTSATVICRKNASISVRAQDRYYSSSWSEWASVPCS

IgE (Homo sapiens), P01854-1, sequence (P01854 other isoform, or with tags, fused parts or gaps): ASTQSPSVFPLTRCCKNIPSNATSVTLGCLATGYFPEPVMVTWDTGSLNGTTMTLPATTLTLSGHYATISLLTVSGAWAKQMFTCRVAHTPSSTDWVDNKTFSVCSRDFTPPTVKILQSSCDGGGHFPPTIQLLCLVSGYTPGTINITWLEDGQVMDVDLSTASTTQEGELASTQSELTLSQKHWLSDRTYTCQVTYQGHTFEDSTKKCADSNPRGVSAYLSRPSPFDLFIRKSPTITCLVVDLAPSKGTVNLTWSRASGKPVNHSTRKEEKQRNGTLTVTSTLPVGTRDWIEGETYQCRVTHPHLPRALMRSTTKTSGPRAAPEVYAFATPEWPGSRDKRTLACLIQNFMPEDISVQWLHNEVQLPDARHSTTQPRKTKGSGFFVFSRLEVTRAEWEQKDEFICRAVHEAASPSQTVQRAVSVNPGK

What is called Kd is the free concentration of one partner at which half of the binding sites on the other are occupied at equilibrium, for simple one-to-one binding. Turning to AGCCUGGGGACCCAUGGGGGGCU [ARC702], the dissociation constant Kd in data set [1] (dRmY, PS between 16 and 17, 20 and 21, RT, parent 12.6 nM) came out at 2.6 nM.

As for AGCCUGGGGACCCAUGGGGGGCU [ARC588], in data set [1] (dRmY, PS between 20 and 21, RT, parent 12.6 nM), the Kd came to 5.3 nM. Turning to AGCCUGGGGACCCNUGGGGGGCU [ARC1560], the Kd in data set [1] (as ARC1335 with dI at 14, 3'-idT, RT, parent ARC1335 15 nM) was determined as 3 nM. The sequence AGCCUGGGGACCCAUGGGGGGCU [ARC445] registered a Kd in data set [1] (2'-deoxy purines, 2'-OMe pyrimidines (dRmY), RT, other runs 12.6 nM (Table 10), with ssDNA and tRNA 14.6 (Table 8), 20 (Table 12), 8.5, 27 and 13 (Table 13)) of 3 nM. With AGCCUGGGGACCCAUGGGGGGCU [ARC1335], the dissociation constant Kd in data set [1] (ARC445 with 2'-OMe purines at 1, 2, 7, 10, 14, 17, other purines 2'-deoxy, 2'-OMe pyrimidines, 3'-idT (last t of SEQ), RT, other runs 15 nM (Table 9), 2.8 nM (Table 11)) was 0.3 nM.

In data set [1] (as ARC1335 with dI at 16, 3'-idT [16], RT), AGCCUGGGGACCCAUGGGGGGCU [ARC1562] gave a Kd of 0.6 nM. As for AGCCUGGGGACCCAUGGGGGGCU [ARC926], the Kd in data set [1] (dRmY, 2'-deoxy-5mC at 11, dC at 12 and 22, ssDNA, tRNA, parent 13 nM) worked out at 5.5 nM. AGCCUGGRGACCCRUGGGGGGCU [ARC2360]: the Kd in data set [1] (as ARC1335 with 2'-deoxy-2-aminopurine at 8 and 2'-OMe-2-aminopurine at 14, 3'-idT, RT, parent 2.8 nM) was 2.7 nM. Consider “ACAGGCAAGUAAUUGGGGAGUGCGGGCGGGGUGU [ARC1650]”, for which, in data set [2] (dI at 3rd dA (position 7) [7], parent 13 nM), the Kd came to 34 nM.

Regarding AGCCUGGGGACCCAUGGGGGGCU [ARC584], the Kd in data set [1] (dRmY, PS between 16 and 17, RT, parent 12.6 nM) was 6.9 nM. As for AGCCUGGGGACCCAUGGGGGGCU [ARC756], the Kd in data set [1] (dRmY, 2'-deoxy-5mC at 3, 11 and 22, ssDNA, tRNA, parent 20 nM) stood at 14 nM.

Regarding AGCCUGGGGACCCAUGGGGGGCU [ARC914], the Kd in data set [1] (dRmY, 2'-deoxy-5mC at 3, dC at 22, ssDNA, tRNA, parent 27 nM) is 11.9 nM. As for AGCCUGGGGACCCAUGGGGGGCU [ARC921], the Kd in data set [1] (dRmY, 2'-deoxy-5mC at 11 and 22, dC at 12, ssDNA, tRNA, parent 13 nM) is 8.5 nM.

With AGCCUGGGGACCCAUGGGGGGCU [ARC751], the dissociation constant (Kd) in data set [1] (dRmY, 2'-deoxy-5mC at 3 and 22, ssDNA, tRNA, parent 20 nM) is 15 nM.

For AGCCUGGRGACCCAUGGGGGGCU [ARC2044], the dissociation constant Kd in data set [1] (as ARC1335 with 2'-deoxy-2-aminopurine at 8, 3'-idT, RT, parent 2.8 nM) came to 3.9 nM. With AGCCUGGGGACCCAUGGGGGGCU [ARC608], the Kd in data set [1] (dRmY, dC in place of sixth mC (position 22, per description; printed sequence shows mC), ssDNA, tRNA, RT, parent 14.6 nM) came to 7.9 nM. For the sequence AGCCUGGGGACCCAUGGGGGGCU [ARC768], the Kd in data set [1] (dRmY, PS between 13 and 14, 16 and 17, 20 and 21, RT, parent 12.6 nM) amounted to 3.5 nM.

As to AGCCUGGGGACCCAUGGGGGGCU [ARC753], the Kd in data set [1] (dRmY, 2'-deoxy-5mC at 11 and 22, ssDNA, tRNA, parent 20 nM) was found to be 15 nM. Regarding “ACAGGCAAGUAAUUGGGGAGUGCGGGCGGGGUGU [ARC1653]”, in data set [2] (dI at 6th dA (position 12) [12], parent 13 nM), the Kd was determined as 25 nM. Regarding AGCCUGGGGACCCAUGGGGGGCU [ARC767], the Kd in data set [1] (dRmY, PS between 12 and 13, 16 and 17, 20 and 21, RT, parent 12.6 nM) stood at 2.7 nM. With AGCCUGGGGACCCAUGGGGGGCU [ARC599], the Kd in data set [1] (dRmY, 2'-deoxy-5mC at 11, ssDNA, tRNA, parent 20 nM, other run 10.4 nM (Table 13, parent 8.5 nM)) turned out to be 20.5 nM. As for “ACAGGCAAGUAAUUGGGGAGUGCGGGCGGGGUGU [ARC1648]”, in data set [2] (dI at 1st dA (position 1) [1], parent 13 nM), the dissociation constant Kd was found to be 12 nM. In the case of RGCCUGGGGACCCAUGGGGGGCU [ARC2040], the dissociation constant (Kd) in data set [1] (as ARC1335 with 2'-OMe-2-aminopurine at 1, 3'-idT, RT, parent 2.8 nM) was determined as 18.7 nM. Consider AGCCUGGGGACCCNUGGGGNGCU [ARC1647], for which the dissociation constant Kd in data set [1] (as ARC1335 with dI at 14 and 20, 3'-idT, RT, parent ARC1335 15 nM) stood at 1 nM. On to RGCCUGGRGACCCRUGGGGGGCU [ARC2361], for which the Kd in data set [1] (as ARC1335 with 2'-OMe-2-aminopurine at 1 and 14 and 2'-deoxy-2-aminopurine at 8, 3'-idT, RT, parent 2.8 nM) is 0.8 nM. AGCCUGGGGACCCAUGGGGGGCU [ARC920]: the Kd in data set [1] (dRmY, 2'-deoxy-5mC at 3 and 22, dC at 12, ssDNA, tRNA, parent 27 nM) was determined as 12.8 nM. On to AGCCUGGGGACCCAUGGGGGGCU [ARC597], for which, in data set [1] (dRmY, 2'-deoxy-5mC at 3, ssDNA, tRNA, parent 20 nM, other run 16 nM (Table 13, parent 8.5 nM)), the Kd was 21.5 nM. For “ACAGGCAAGUAAUUGGGGAGUGCGGGCGGGGUGN [ARC1702]”, the dissociation constant Kd in data set [2] (2'-OMe inosine for last mU, 3'-idT (last t of SEQ), parent 15 nM) was 10 nM.

For AGCCUGGGGACCCAUGGGGGGCU [ARC925], the Kd in data set [1] (dRmY, 2'-deoxy-5mC at 3, dC at 12 and 22, ssDNA, tRNA, parent 13 nM) was determined as 8.1 nM. Consider AGCCUGGGGACCCRUGGGGGGCU [ARC2047], for which the Kd in data set [1] (as ARC1335 with 2'-OMe-2-aminopurine at 14, 3'-idT, RT, parent 2.8 nM) is 4.8 nM. AGCCUGGGGACCCAUGGGGGGCU [ARC916]: in data set [1] (dRmY, 2'-deoxy-5mC at 3, dC at 12, ssDNA, tRNA, parent 27 nM), the Kd is 13.7 nM. For AGCCUGGGGACCCAUGGGGGGCU [ARC1566], the Kd in data set [1] (as ARC1335 with dI at 20, 3'-idT [20], RT, other run 8 nM (Table 9, parent ARC1335 15 nM)) came to 0.1 nM. Consider AGCCUGGGGACCCAUGGGGGGCU [ARC918], for which the dissociation constant Kd in data set [1] (dRmY, 2'-deoxy-5mC at 22, dC at 12, ssDNA, tRNA, parent 27 nM) was 14.6 nM.

In data set [1] (as ARC1335 with dI at 19, 3'-idT [19], RT), AGCCUGGGGACCCAUGGGGGGCU [ARC1565] returned a dissociation constant (Kd) of 1.4 nM.

AGCCUGGGGACCCAUGGGGGGCU [ARC1564] had a Kd in data set [1] (as ARC1335 with dI at 18, 3'-idT [18], RT) of 0.5 nM. For “ACAGGCAAGUAANUGGGGAGUGCGGGCGGGGUGU [ARC1683]”, the Kd in data set [2] (2'-OMe inosine for 2nd mU, 3'-idT (last t of SEQ), parent 9.8 nM) is 4.8 nM. Regarding AGCCUGGGGACCCAUGGGGGGCU [ARC1548], in data set [1] (as ARC1335 with dI at 2, 3'-idT [dI at 2 (parent base G), other modifications as ARC1335, 3'-idT], RT), the Kd is 3.3 nM. AGCCUGGGGACCCAUGGGGGGCU [ARC602]: in data set [1] (dRmY, 2'-deoxy-5mC at 22, ssDNA, tRNA, parent 20 nM, other run 9 nM (Table 13, parent 8.5 nM)), the dissociation constant (Kd) was 26 nM. AGCCUGGGGACCCAUGGGGGGCU [ARC915]: in data set [1] (dRmY, 2'-deoxy-5mC at 11, dC at 22, ssDNA, tRNA, parent 27 nM), the dissociation constant (Kd) came to 16.9 nM. AGCCUGGGGACCCAUGGGGGGCU [ARC1563] returned a Kd in data set [1] (as ARC1335 with dI at 17, 3'-idT [17], RT) of 2.2 nM.
